Results from patent US20190065668A1 (published 2019).
Square brackets hold non-standard residues; d marks the D form. * marks the point of attachment. Sta = CC(C)C[C@H](N)[C@@H](O)CC(=O)O; NHPhenethyl = c1ccc(CCN*)cc1; Cbz = O=C(OCc1ccccc1)*

Assays:
[1] = molecular target: plasmepsin V in P. falciparum parasites (endogenous enzyme in trophozoites expressing PfEMP3-GFP) (Plasmodium falciparum, UniProt Q8I6Z5 1-590); experiment: cell-based or functional assay
[2] = molecular target: recombinant P. falciparum plasmepsin V (residues N80-R528) (Plasmodium falciparum, UniProt Q8I6Z5 80-528); experiment: cell-based or functional assay
Sequence of recombinant P. falciparum plasmepsin V (residues N80-R528) (Q8I6Z5 80-528): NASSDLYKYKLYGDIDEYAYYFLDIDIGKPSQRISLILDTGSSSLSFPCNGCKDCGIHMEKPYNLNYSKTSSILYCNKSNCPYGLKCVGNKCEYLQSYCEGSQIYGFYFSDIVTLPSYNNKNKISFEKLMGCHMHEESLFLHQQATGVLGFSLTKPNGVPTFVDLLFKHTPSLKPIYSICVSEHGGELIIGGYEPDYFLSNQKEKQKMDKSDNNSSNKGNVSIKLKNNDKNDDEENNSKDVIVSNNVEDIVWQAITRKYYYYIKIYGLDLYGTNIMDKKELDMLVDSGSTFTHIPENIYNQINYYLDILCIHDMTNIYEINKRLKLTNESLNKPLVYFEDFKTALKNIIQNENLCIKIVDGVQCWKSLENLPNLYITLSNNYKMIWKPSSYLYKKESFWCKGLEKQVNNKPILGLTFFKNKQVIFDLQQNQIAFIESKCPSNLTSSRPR

Sequence of plasmepsin V in P. falciparum parasites (endogenous enzyme in trophozoites expressing PfEMP3-GFP) (Q8I6Z5 whole entry, the tested form may be a part): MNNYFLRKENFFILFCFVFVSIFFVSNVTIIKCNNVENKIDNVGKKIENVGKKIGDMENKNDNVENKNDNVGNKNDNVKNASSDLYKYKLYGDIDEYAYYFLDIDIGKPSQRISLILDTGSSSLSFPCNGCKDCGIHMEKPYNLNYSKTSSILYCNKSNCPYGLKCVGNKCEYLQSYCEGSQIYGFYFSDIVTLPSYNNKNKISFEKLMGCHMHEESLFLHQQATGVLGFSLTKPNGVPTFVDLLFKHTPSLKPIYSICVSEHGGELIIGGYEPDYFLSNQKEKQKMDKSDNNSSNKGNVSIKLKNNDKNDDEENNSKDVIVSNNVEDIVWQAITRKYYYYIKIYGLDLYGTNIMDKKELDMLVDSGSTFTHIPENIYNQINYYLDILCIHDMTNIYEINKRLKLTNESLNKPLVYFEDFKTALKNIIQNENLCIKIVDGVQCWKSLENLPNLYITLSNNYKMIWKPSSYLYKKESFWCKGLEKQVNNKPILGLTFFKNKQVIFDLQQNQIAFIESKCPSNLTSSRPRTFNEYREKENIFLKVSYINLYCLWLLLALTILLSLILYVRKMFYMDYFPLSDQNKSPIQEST

B1: WEHI-842, Cbz-Cav(NH2)-Val-Sta-NH(CH2)2Ph.TFA (peptide)
peptide: Cbz-X-Val-[Sta]-NHPhenethyl
modifications: not fully specified (residue 1); printed as Cbz-Cav(NH2)-Val-Sta-NH(CH2)2Ph; also: TFA salt
[1]
  inhibition of PEXEL processing of PfEMP3-GFP in parasites, immunoblot, fold against WEHI-916: 10 fold
  inhibition of PfEMP3-GFP PEXEL cleavage in parasites, radiolabelling and densitometry, fold against WEHI-916: 10 fold
[2]
  IC50, inhibition of cleavage of the fluorogenic KAHRP PEXEL peptide: 0.79 nM
